Experimental data as given in patent publication US20240392003A1 (NUMAB THERAPEUTICS, published 2024).

B1: PRO2510 (bispecific antibody)
chain: AFELTQSPSSLSASVGDRVTITCQASESINSRLAWYQQKPGQPPKLLIYDASDLTSGVPSRFSGSGSGTDFTLTISSLQPEDFATYYCQGYGGSSTTTFGCGTKLTVLGGGGGSEVQLVESGGGLVQPGGSLRLSCAASGFSLSSYDMSWVRQAPGKGLAWIGASYASGPTYYASWAKGRFTISRDNSKNTVYLQMNSLRAEDTATYFCARGGWTGTSHSNIWGQGTLVTVSSGGGGSGGGGSGGGGSGGGGSDIQMTQSPSSLSASVGDRVTITCQSSQSVFSNNYLAWFQQKPGQSPKRLIYSASTLASGVPSRFSGSGSGTDFTLTISSLQPEDFATYYCLGSYACSSADCYVFGTGTKVTVLGGGGGSEVQLVESGGGLVQPGGSLRLSCAASGFSLSSYAMNWVRQAPGKCLEWIGHINAGDIAYYATWAKGRFTISRDNSKNTVYLQMNSLRAEDTAVYFCARGAGGFSTGPFKLWGQGTLVTVSSGGGGSGGGGSAQQLTQSPSSLSASVGDRVTITCQASQNVWNNNYLSWFQQKPGKPPKLLIVTASTLASGVSSRFSGSGSGTDFTLTISSLQPEDFATYYCAGGFSGEIRAFGCGTKVTVLGGGGGSGGGGSGGGGSGGGGSQSQLVESGGGLVQPGGSLRLSCAVSGLSLSRNAMSWVRQAPGKCLEWIGIILTSGSTYYASWAKGRFTISKDNSKNTVYLQMNSLRAEDTAVYFCVRGIASSSLKSFWGQGTLVTVSS
notes: trispecific anti-ROR1 x hSA x CD3 scMATCH3, single chain; also called 19-04-A10-sc06 scDb-o/28-21-D09-sc04 scDb-i/55-39-G02-sc05-scFv
B2: PRO2507 (bispecific antibody)
chain: AFELTQSPSSLSASVGDRVTITCQASESINSRLAWYQQKPGQPPKLLIYDASDLTSGVPSRFSGSGSGTDFTLTISSLQPEDFATYYCQGYGGSSTTTFGCGTKLTVLGGGGGSEVQLVESGGGLVQPGGSLRLSCAASGFSLSSYDMSWVRQAPGKGLAWIGASYASGPTYYASWAKGRFTISRDNSKNTVYLQMNSLRAEDTATYFCARGGWTGTSHSNIWGQGTLVTVSSGGGGSGGGGSGGGGSGGGGSDIQMTQSPSSLSASVGDRVTITCQSSQSVFSNNYLAWFQQKPGQSPKRLIYSASTLASGVPSRFSGSGSGTDFTLTISSLQPEDFATYYCLGSYACSSADCYVFGTGTKVTVLGGGGGSEVQLVESGGGLVQPGGSLRLSCAASGFSLSSYAMNWVRQAPGKCLEWIGHINAGDIAYYATWAKGRFTISRDNSKNTVYLQMNSLRAEDTAVYFCARGAGGFSTGPFKLWGQGTLVTVSSGGGGSGGGGSDVQMTQSPSSLSASVGDRVTITCRASENIYSGLAWYQQKPGKPPKLLIYRASTLASGVSSRFSGSGSGTDFTLTISSLQPEDFATYYCQGGYYSSSSTYIAFGTGTKVTVLGGGGGSGGGGSGGGGSGGGGSQSQVVESGGGLVQPGGSLRLSCAVSGFDLSSYAVSWVRQAPGKGLEWIGIIYPRANTYYASWAKGRFTISKDNSKNTVYLQMNSLRAEDTAVYFCARDRYDSGAYLYTTYFNLWGQGTLVTVSS
notes: trispecific anti-ROR1 x hSA x CD3 scMATCH3, single chain; also called 19-04-A10-sc06 scDb-o/28-21-D09-sc04 scDb-i/55-38-D07-sc02-scFv
B3: PRO2557 (bispecific antibody)
chain: AFELTQSPSSLSASVGDRVTITCQASESINSRLAWYQQKPGQPPKLLIYDASDLTSGVPSRFSGSGSGTDFTLTISSLQPEDFATYYCQGYGGSSTTTFGCGTKLTVLGGGGGSEVQLVESGGGLVQPGGSLRLSCAASGFSLSSYDMSWVRQAPGKGLAWIGASYASGPTYYASWAKGRFTISRDNSKNTVYLQMNSLRAEDTATYFCARGGWTGTSHSNIWGQGTLVTVSSGGGGSGGGGSGGGGSGGGGSDIQMTQSPSSLSASVGDRVTITCQSSQSVFSNNYLAWFQQKPGQSPKRLIYSASTLASGVPSRFSGSGSGTDFTLTISSLQPEDFATYYCLGSYACSSADCYVFGTGTKVTVLGGGGGSEVQLVESGGGLVQPGGSLRLSCAASGFSLSSYAMNWVRQAPGKCLEWIGHINAGDIAYYATWAKGRFTISRDNSKNTVYLQMNSLRAEDTAVYFCARGAGGFSTGPFKLWGQGTLVTVSSGGGGSGGGGSAQQLTQSPSSLSASVGDRVTITCQASQNVWNNNYLSWFQQKPGKPPKLLIVTASTLASGVSSRFSGSGSGTDFTLTISSLQPEDFATYYCAGGFSGEIRAFGCGTKVTVLGGGGGSGGGGSGGGGSGGGGSQSQLVESGGGLVQPGGSLRLSCAVSGIDLSRNAMSWVRQAPGKCLEWIGIILTSGSTYYASWAKGRFTISKTSTTLDLQMNSLRAEDTAVYFCVRGIASSSLKSFWGQGTLVTVSS
notes: trispecific anti-ROR1 x hSA x CD3 scMATCH3, single chain; also called 19-04-A10-sc06 scDb-o/28-21-D09-sc04 scDb-i/55-39-G02-sc06-scFv

Each binder was assayed against T1, recombinant human CD3 epsilon extra-cellular domain protein (His-Tag, SinoBiological) (human, UniProt P07766 23-126) (assay: SPR; hCD3ε immobilized, two-state fit;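 further: biacore T200 measurement with target covalently coupled to a CM5 chip, antibody constructs injected as analyte over a concentration series, constants derived in Biacore Evaluation software 3.2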).
T1 construct: extracellular domain; Bought; also called hCD3ε; human CD3ε; not shown: His tag

| Binder | Kd [nM] | ka2 [s⁻¹] | kd2 [s⁻¹] |
| --- | --- | --- | --- |
| B1 | 2.1 | 0.0013 | 0.002 |
| B2 | 9.4 | 0.0069 | 0.0078 |
| B3 | 5.5 | 0.00042 | 0.0014 |

The binders below were run against T2, human ROR1 expressed on cells (human, UniProt Q01973 30-937) (assay: cell-based or functional assay).

| Binder | EC50 (nM) Cytotoxicity (MDA-MB-231) [nM] |
| --- | --- |
| B1 | 0.43 |
| B2 | 1 |
| B3 | 3.1 |

The binders below were run against T1, recombinant human CD3 epsilon … (assay: SPR; hCD3ε immobilized, two-state fit (ka1)).
Experimental: Binding kinetics (including affinity) of the nine selected scMATCH3 molecules to recombinant human CD3 epsilon extra-cellular domain protein (hCD3ε; His-Tag, SinoBiological) were determined by SPR analysis on a T200 device (Biacore, Cytiva). Recombinant hCD3ε molecules were covalently immobilized to a carboxymethylated dextran surface (CM5 sensorchip; Biacore, Cytiva) and a titration series of each MATCH3 molecule was injected as analyte. After each analyte injection-cycle, every flow channel on the sensor chip was regenerated (Glycine, pH 2.0 and 3 M MgCl₂), and a new concentration of MATCH3 molecule was injected. […] The apparent dissociation (kₐ₁) and association (kₐ₁) rate constants, the second reaction constants (kₐ₂ and kd) and the apparent dissociation equilibrium constant (KD) were calculated with the Biacore analysis software (Biacore Evaluation software Version 3.2, Cytiva) using a two-state binding model, and quality of the fits was monitored based on relative Chi2. The binding level was calculated as the maximum stability binding achieved normalized to the theoretical Rmax.

| Binder | kon [M⁻¹ s⁻¹] |
| --- | --- |
| B1 | 1e+06 |
| B2 | 340000 |
| B3 | 430000 |

Each binder was assayed against T3, recombinant human ROR1 protein (Fc-Tag, Acro Biosystems RO1-H5250) (human, UniProt Q01973 30-406) (assay: SPR; hROR1-Fc immobilized;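 further: biacore T200 SPR with ROR1 covalently coupled to a CM5 chip, analyte titration series, apparent rate and equilibrium constants fitted with a 1:1 Langmuir model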).
T3 construct: Bought; also called hROR1; recombinant human ROR1 ECD; not shown: Fc tag

| Binder | Kd [nM] | koff [s⁻¹] | kon [M⁻¹ s⁻¹] |
| --- | --- | --- | --- |
| B1 | 0.46 | 0.0006 | 1.3e+06 |
| B2 | < 0.12 | < 1e-05 | 82000 |
| B3 | 1.6 | 0.00067 | 420000 |

The binders below were run against T2, human ROR1 expressed on cells (assay: flow cytometry, MDA-MB-231 cells, 1 mg/ml hSA).
Experimental: After incubation at 4° C. for 1 h in presence of 1 mg/mi of human serum albumin (hSA), plates were washed and incubated with specific detection antibodies.
The binding of anti-ROR1xhSAxCD3 scMATCH3 molecules to plasma membrane human ROR1 was assessed by flow cytometry.

| Binder | EC50 [nM] | Rel. maximum binding (MFIscMATCH3/MFIPRO2213) |
| --- | --- | --- |
| B1 | 1.36 | 2.61 |
| B2 | 26.9 | 2.88 |
| B3 | 3.27 | 2.43 |

Each binder was assayed against T1, recombinant human CD3 epsilon … (assay: SPR; hCD3ε immobilized, two-state fit (kd1)).

| Binder | koff [s⁻¹] |
| --- | --- |
| B1 | 0.0036 |
| B2 | 0.006 |
| B3 | 0.0031 |

Target: T2, human ROR1 expressed on cells
Experiment: cell-based or functional assay
Remark: another data set of the same source

| Binder | Avg. % max. CD8 T cell act. (JIMT-1) [%] | Avg. % max. CD8 T cell act. (MDA-MB-231) [%] | Avg. % max. CD8 T cell act. (SKOV3) [%] | Avg. EC50 (nM) CD8 T cell act. (JIMT-1) [nM] | Avg. EC50 (nM) CD8 T cell act. (MDA-MB-231) [nM] | Avg. EC50 (nM) CD8 T cell act. (SKOV3) [nM] |
| --- | --- | --- | --- | --- | --- | --- |
| B1 | 47.6 | 70.4 | 79.3 | 1.1 | 0.087 | 0.19 |
| B2 | 40.8 | 68 | 64.3 | 2.9 | 0.36 | 0.34 |
| B3 | 48.7 | 65.3 | 81.5 | 5.4 | 0.52 | 1.2 |

Target: T2, human ROR1 expressed on cells
Experiment: cell-based or functional assay
Remark: another data set of the same source

| Binder | Avg. % max. CD4 T cell act. (JIMT-1) [%] | Avg. % max. CD4 T cell act. (MDA-MB-231) [%] | Avg. % max. CD4 T cell act. (SKOV3) [%] | Avg. EC50 (nM) CD4 T cell act. (JIMT-1) [nM] | Avg. EC50 (nM) CD4 T cell act. (MDA-MB-231) [nM] | Avg. EC50 (nM) CD4 T cell act. (SKOV3) [nM] |
| --- | --- | --- | --- | --- | --- | --- |
| B1 | 68 | 82 | 87.3 | 0.8 | 0.036 | 0.13 |
| B2 | 63.2 | 81.8 | 83.3 | 2.4 | 0.14 | 0.22 |
| B3 | 69.3 | 77.7 | 87.5 | 3.3 | 0.2 | 0.55 |

Target: T2, human ROR1 expressed on cells
Experiment: cell-based or functional assay
Remark: another data set of the same source

| Binder | Avg. % max. lysis (JIMT-1) [%] | Avg. % max. lysis (MDA-MB-231) [%] | Avg. % max. lysis (SKOV3) [%] | Avg. EC50 (nM) CD8 T cell act. (MDA-MB-231) [nM] | Avg. EC50 (nM) CD8 T cell act. (SKOV3) [nM] | Avg. EC50 (nM) Cytotoxicity (JIMT-1) [nM] | Avg. EC50 (nM) Cytotoxicity (MDA-MB-231) [nM] | Avg. EC50 (nM) Cytotoxicity (SKOV3) [nM] |
| --- | --- | --- | --- | --- | --- | --- | --- | --- |
| B1 | 72.1 | 65.5 | 83.1 | 0.087 | 0.19 | 1.1 | 0.14 | 0.25 |
| B2 | 63.9 | 64.6 | 79.1 | 0.36 | 0.34 | 2 | 0.47 | 0.42 |
| B3 | 83 | 78.2 | 88 | 0.52 | 1.2 | 3.4 | 0.74 | 1.3 |
